{"source": "patent US20240309109A1", "target": "human CD38 on cells (human) (UniProt P28907)", "test": "FACS Scatchard, IgG1 on Raji cells"}
{"substance": "Chimeric OKT10 (antibody)", "values": [{"measurement": "Kd", "value": 8.28, "unit": "nM"}]}
